Source: US20100003195A1

How the values were obtained:
[1] = molecular target: KDR on KDR-transfected 293H cells (human) (UniProt P35968); assay: scrambled-peptide microbubbles (Example 35) on KDR-transfected 293H cells, microscopy
[2] = molecular target: KDR on KDR-transfected 293H cells (human) (UniProt P35968); assay: scrambled-peptide microbubbles (Example 36) on KDR-transfected 293H cells, microscopy
[3] = molecular target: KDR on KDR-transfected 293H cells (human) (UniProt P35968); assay: scrambled-peptide microballoons (Example 37) on KDR-transfected 293H cells, microscopy

coverage % of the imaged surface [1]: 2.1% | coverage % of the imaged surface [2]: 2.2% | coverage % of the imaged surface [3]: 0.1%
Substance: microvesicles conjugated to a scrambled control peptide
